Assay [1] addresses full-length GST-EFCAB9 (mouse) (mouse, UniProt Q9DAM2 1-216). Put plainly: pull-down.
In assay [2] the target is GST-EFCAB9^Mut2 (D72N/E160Q) (mouse, UniProt Q9DAM2 1-216, D72N | E160Q). Put plainly: pull-down.
Chain of GST-EFCAB9^Mut2 (D72N/E160Q) (Q9DAM2 whole entry D72N/E160Q): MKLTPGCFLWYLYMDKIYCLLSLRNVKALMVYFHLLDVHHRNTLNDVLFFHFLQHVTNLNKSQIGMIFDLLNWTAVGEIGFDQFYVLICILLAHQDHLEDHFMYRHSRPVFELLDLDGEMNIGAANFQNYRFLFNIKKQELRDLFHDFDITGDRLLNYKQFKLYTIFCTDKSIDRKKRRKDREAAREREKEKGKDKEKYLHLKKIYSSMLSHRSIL

Chain of full-length GST-EFCAB9 (mouse) (Q9DAM2 whole entry): as the sequence (Q9DAM2 whole entry D72N/E160Q) above, with N72D, Q160E counted along it

B1: 6xHis-tagged mouse CatSperζ fused to GB1 (natural protein)
chain: MEESVKPVPKHANHRRSSVRSSLYGDVRDLWSTATMSTANVSVSDVCEDFDEEGKSVRNRIRKYSQTISIRDSLNLEPEEIQQQARRELELCHGRSLEHGEDHEESETSLASSTSESLIFSLWKPHRTYWTEQQNRLPLPLMELMETEVLDILKKALITYRSTIGRNHFMTKELQGYIEGIRKRRNKRLYFLDQ
On to B1, for which the binding result in assay [1] and in assay [2] was “binds” in each case.

Values taken from paper doi:10.1101/459487 (bioRxiv, 2018).
